The target of experiment [1] is T1, Mouse Id2: Histidine (mouse, UniProt P41136 1-134, limits assumed).
T1 construct: E. coli fusion protein (vector pGW07); also called m-Id2: His; not shown: His-tag
T1 sequence (looked up): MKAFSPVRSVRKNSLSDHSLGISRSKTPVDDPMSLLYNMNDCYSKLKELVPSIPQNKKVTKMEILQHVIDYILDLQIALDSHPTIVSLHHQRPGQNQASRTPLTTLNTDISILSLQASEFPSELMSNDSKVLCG
Kind of experiment: ELISA, coated antigen, Ab 0.025 ug/ml. For orientation: ELISA stands for enzyme-linked immunosorbent assay.

Experiment [2] deals with T2, Mouse Id1: Histidine (mouse, UniProt P20067-2 1-148).
T2 construct: E. coli fusion protein (vector pGW07); also called m-Id1-His; not shown: His-tag
T2 sequence: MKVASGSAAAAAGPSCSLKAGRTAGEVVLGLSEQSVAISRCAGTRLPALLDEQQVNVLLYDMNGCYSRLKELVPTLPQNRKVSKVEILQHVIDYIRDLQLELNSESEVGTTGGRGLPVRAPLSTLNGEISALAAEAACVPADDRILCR
Kind of experiment: ELISA, coated antigen, Ab 0.025 ug/ml.

Experiment [3] concerns the target T3, Human Id4: Histidine (human, UniProt P47928 1-161, limits assumed).
T3 construct: E. coli fusion protein (vector pGW07); also called h-Id4: His; not shown: His-tag
T3 sequence (looked up): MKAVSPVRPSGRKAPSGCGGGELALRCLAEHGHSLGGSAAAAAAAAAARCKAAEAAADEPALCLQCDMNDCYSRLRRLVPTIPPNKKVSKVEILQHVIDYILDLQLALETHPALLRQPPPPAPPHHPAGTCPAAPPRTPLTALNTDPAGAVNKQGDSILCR
Kind of experiment: ELISA, coated antigen, Ab 0.025 ug/ml.

The target of experiment [4] is T4, Human Id3: Histidine (human, UniProt Q02535 1-119, limits assumed).
T4 construct: E. coli fusion protein (vector pGW07); also called h-Id3: His; not shown: His-tag
T4 sequence (looked up): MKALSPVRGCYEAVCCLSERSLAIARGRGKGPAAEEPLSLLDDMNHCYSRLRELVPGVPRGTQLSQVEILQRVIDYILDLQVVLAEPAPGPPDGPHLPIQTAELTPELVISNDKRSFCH
Kind of experiment: ELISA, coated antigen, Ab 0.025 ug/ml.

Experiment [5] deals with T5, Mouse Id3: Histidine (mouse, UniProt P41133 1-119, limits assumed).
T5 construct: E. coli fusion protein (vector pGW07); also called m-Id3: His; not shown: His-tag
T5 sequence (looked up): T4 sequence (looked up) with G31S, A33S, A34T, N112K
Briefly: ELISA, coated antigen, Ab 0.025 ug/ml.

Experiment [6] deals with T6, Human Id2: Histidine (human, UniProt Q02363 1-134, limits assumed).
T6 construct: E. coli fusion protein (vector pGW07); also called h-Id2: His; not shown: His-tag
T6 sequence (looked up): T1 sequence (looked up) with T60S, V131A
Kind of experiment: ELISA, coated antigen, Ab 0.025 ug/ml.

Experiment [7] has as its target T7, Mouse Id4: Histidine (mouse, UniProt P41139 1-161, limits assumed).
T7 construct: E. coli fusion protein (vector pGW07); also called m-Id4: His; not shown: His-tag
T7 sequence (looked up): T3 sequence (looked up) with H125L, T130A, A133V
Kind of experiment: ELISA, coated antigen, Ab 0.025 ug/ml.

The target in experiment [8] is T1, Mouse Id2: Histidine. Kind of experiment: ELISA, coated antigen, Ab 0.005 ug/ml.
Experiment [9] deals with T3, Human Id4: Histidine. Briefly: ELISA, coated antigen, Ab 0.005 ug/ml.
The target of experiment [10] is T5, Mouse Id3: Histidine. Briefly: ELISA, coated antigen, Ab 0.005 ug/ml.
In experiment [11] the target is T6, Human Id2: Histidine. Kind of experiment: ELISA, coated antigen, Ab 0.005 ug/ml.
In experiment [12] the target is T7, Mouse Id4: Histidine. Briefly: ELISA, coated antigen, Ab 0.005 ug/ml.
For experiment [13], the target named is T4, Human Id3: Histidine. Briefly: ELISA, coated antigen, Ab 0.100 ug/ml.
In experiment [14] the target is T5, Mouse Id3: Histidine. Kind of experiment: ELISA, coated antigen, Ab 0.100 ug/ml.
The target of experiment [15] is T6, Human Id2: Histidine. Briefly: ELISA, coated antigen, Ab 0.100 ug/ml.
Experiment [16] deals with T1, Mouse Id2: Histidine. Kind of experiment: ELISA, coated antigen, Ab 0.000 ug/ml (blank, diluent only).
Experiment [17] concerns the target T2, Mouse Id1: Histidine. The description is as above.
In experiment [18] the target is T3, Human Id4: Histidine. The description is as above.
Experiment [19] concerns the target T4, Human Id3: Histidine. The experiment is described as above.
Experiment [20] deals with T5, Mouse Id3: Histidine. Described as above.
The target in experiment [21] is T6, Human Id2: Histidine. Described as above.
The target of experiment [22] is T7, Mouse Id4: Histidine. The experiment is described as above.

Substitutions are numbered along the chain they refer to.

On to “rabbit monoclonal anti-mouse/human Id1, clone #BCH-1/#195-14 (antibody)”, for which the A450 with Mouse Id2: Histidine [1] amounted to 0.049 A450; in the experiment with Mouse Id1: Histidine [2], 0.876 A450; with Human Id4: Histidine [3], 0.045 A450; with Human Id3: Histidine [4], 0.047 A450; with Mouse Id3: Histidine [5], 0.047 A450; with Human Id2: Histidine [6], 0.05 A450. Further, the A450 with Mouse Id4: Histidine [7] is 0.046 A450; with Mouse Id2: Histidine [8], 0.052 A450; in the experiment with Human Id4: Histidine [9] it was 0.044 A450; with Mouse Id3: Histidine [10], 0.048 A450; with Human Id2: Histidine [11], 0.048 A450; with Mouse Id4: Histidine [12], 0.047 A450. Moreover, the A450 with Human Id3: Histidine [13] stood at 0.047 A450; with Mouse Id3: Histidine [14], 0.05 A450; in the experiment with Human Id2: Histidine [15], 0.053 A450; in the experiment with Mouse Id2: Histidine [16] it was 0.051 A450; with Mouse Id1: Histidine [17], 0.045 A450; in the experiment with Human Id4: Histidine [18] it was 0.046 A450. The A450 with Human Id3: Histidine [19] was 0.049 A450; with Mouse Id3: Histidine [20] it was 0.05 A450; with Human Id2: Histidine [21], 0.058 A450; in the experiment with Mouse Id4: Histidine [22] it was 0.047 A450.
Turning to “rabbit monoclonal anti-human Id1, clone #BCH-2/#5-3 (antibody)”, the A450 with Mouse Id2: Histidine [1] turned out to be 0.048 A450; in the experiment with Mouse Id1: Histidine [2], 0.053 A450; in the experiment with Human Id4: Histidine [3] it was 0.049 A450; with Human Id3: Histidine [4], 0.046 A450; with Mouse Id3: Histidine [5] it was 0.046 A450; with Human Id2: Histidine [6] it was 0.049 A450. For the same substance, the A450 worked out at 0.047 A450 in the experiment with Mouse Id4: Histidine [7]; 0.048 A450 in the experiment with Mouse Id2: Histidine [8]; 0.049 A450 in the experiment with Human Id4: Histidine [9]; 0.047 A450 in the experiment with Mouse Id3: Histidine [10]; 0.049 A450 in the experiment with Human Id2: Histidine [11]; 0.045 A450 with Mouse Id4: Histidine [12]. Moreover, the A450 in the experiment with Human Id3: Histidine [13] is 0.046 A450; with Mouse Id3: Histidine [14] it was 0.05 A450; with Human Id2: Histidine [15], 0.054 A450; in the experiment with Mouse Id2: Histidine [16], 0.051 A450; in the experiment with Mouse Id1: Histidine [17], 0.046 A450; in the experiment with Human Id4: Histidine [18], 0.046 A450. The A450 with Human Id3: Histidine [19] is 0.052 A450; in the experiment with Mouse Id3: Histidine [20] it was 0.058 A450; with Human Id2: Histidine [21], 0.049 A450; in the experiment with Mouse Id4: Histidine [22] it was 0.045 A450.

(Values after patent US20060286609A1 (BIOCHECK, published 2006).)
